{"source": "paper PMC3285579", "key": {"[1]": {"target": "MBP-WSP-1(334 aa-608 aa) (C. elegans)", "sequence (main, as listed by the source)": "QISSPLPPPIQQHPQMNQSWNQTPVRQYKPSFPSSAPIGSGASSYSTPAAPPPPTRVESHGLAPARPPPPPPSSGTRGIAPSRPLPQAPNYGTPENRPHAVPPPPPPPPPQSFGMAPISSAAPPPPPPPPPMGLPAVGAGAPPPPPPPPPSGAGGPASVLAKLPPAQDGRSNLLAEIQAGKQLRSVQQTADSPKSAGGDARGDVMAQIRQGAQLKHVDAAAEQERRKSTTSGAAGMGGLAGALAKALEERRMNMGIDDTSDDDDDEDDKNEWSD", "assay": "pull-down; MBP pull-down with competitors (Figure 6B): MBP-WSP-1 on amylose resin; soluble extracts of GST-NCK-1 F.L., GST-UNC-34 F.L. and His-VAB-1 as load; band intensities quantified from at least two independent blots with Image J; wash 20 mM Tris-Cl pH 7.5, 200 mM NaCl, 1 mM EDTA, 1 mM DTT"}, "[2]": {"target": "GST-NCK-1 F.L., full length NCK-1 (1 aa-397 aa) (C. elegans)", "assay": "pull-down; MBP pull-down with competitors (Figure 6B): MBP-WSP-1 on amylose resin; soluble extracts of GST-NCK-1 F.L., GST-UNC-34 F.L. and His-VAB-1 as load; band intensities quantified from at least two independent blots with Image J; wash 20 mM Tris-Cl pH 7.5, 200 mM NaCl, 1 mM EDTA, 1 mM DTT"}}}
{"substance": "GST-NCK-1 F.L., full length NCK-1 (1 aa-397 aa) (natural protein)", "values": [{"measurement": "relative intensity of NCK-1 pulled down by MBP-WSP-1 with UNC-34 and VAB-1 added (NCK-1 alone = 1.0)", "setting": "[1]", "result": 1.3}]}
{"substance": "GST-UNC-34 F.L., full length UNC-34 (1 aa-454) (natural protein)", "values": [{"measurement": "relative intensity of NCK-1 pulled down by MBP-WSP-1 with UNC-34 added (without UNC-34 = 1.0)", "setting": "[2]", "result": 0.3}]}
